Measured values taken from patent publication US20240301385, “DNA MODIFYING ENZYMES AND ACTIVE FRAGMENTS AND VARIANTS THEREOF AND METHODS OF USE” (LIFEEDIT THERAPEUTICS, INC., published 2024).

Legend:
Settings in all cases: tags: SV40 NLS, 3xFLAG N-term; nucleoplasmin NLS C-term
[1] = target: T1, APG30129-L32-nAPG07433.1 (synthetic); assay: cell_activity; HEK293FT; PAM SEQ 152
T1 chain: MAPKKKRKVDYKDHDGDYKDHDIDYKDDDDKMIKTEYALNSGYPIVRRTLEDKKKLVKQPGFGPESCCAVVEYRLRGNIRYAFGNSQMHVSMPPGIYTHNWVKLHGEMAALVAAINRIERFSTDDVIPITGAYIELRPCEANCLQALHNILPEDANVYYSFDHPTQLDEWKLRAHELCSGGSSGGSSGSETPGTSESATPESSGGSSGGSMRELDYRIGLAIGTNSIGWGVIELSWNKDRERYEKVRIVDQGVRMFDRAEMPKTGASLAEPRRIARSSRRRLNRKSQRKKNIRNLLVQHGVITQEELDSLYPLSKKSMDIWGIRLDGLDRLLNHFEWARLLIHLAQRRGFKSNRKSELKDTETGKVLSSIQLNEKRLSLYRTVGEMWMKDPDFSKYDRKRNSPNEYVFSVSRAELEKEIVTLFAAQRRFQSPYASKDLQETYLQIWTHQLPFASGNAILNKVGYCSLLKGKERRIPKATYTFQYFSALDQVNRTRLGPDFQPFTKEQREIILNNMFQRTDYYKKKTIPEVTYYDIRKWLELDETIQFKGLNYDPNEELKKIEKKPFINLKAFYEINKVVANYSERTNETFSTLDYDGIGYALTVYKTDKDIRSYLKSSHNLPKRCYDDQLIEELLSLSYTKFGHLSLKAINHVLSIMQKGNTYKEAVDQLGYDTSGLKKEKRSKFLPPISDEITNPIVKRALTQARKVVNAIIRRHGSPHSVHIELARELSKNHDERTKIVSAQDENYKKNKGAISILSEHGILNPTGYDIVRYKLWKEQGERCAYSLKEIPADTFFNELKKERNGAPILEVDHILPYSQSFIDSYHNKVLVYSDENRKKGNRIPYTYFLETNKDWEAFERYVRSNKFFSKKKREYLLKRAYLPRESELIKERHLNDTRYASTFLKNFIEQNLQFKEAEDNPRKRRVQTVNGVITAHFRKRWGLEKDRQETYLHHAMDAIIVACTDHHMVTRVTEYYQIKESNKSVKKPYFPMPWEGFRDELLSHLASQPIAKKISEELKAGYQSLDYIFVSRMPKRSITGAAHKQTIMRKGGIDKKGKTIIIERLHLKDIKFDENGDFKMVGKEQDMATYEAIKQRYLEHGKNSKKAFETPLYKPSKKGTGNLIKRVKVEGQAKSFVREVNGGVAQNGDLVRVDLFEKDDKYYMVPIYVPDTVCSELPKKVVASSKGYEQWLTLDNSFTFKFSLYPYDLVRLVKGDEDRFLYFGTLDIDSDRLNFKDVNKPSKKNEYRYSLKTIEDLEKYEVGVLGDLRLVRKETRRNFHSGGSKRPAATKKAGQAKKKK
Method: (§1) 500 ng of plasmid comprising an expression cassette comprising a coding sequence for each fusion protein shown in Table 3 and 500 ng of plasmid comprising an expression cassette encoding an sgRNA shown in Table 4 were co-transfected into HEK293FT cells at 75-90% confluency in 24-well plates using Lipofectamine 2000 reagent (Life Technologies). Cells were then incubated at […] for 72 h. Following incubation, genomic DNA was then extracted using NucleoSpin 96 Tissue (Macherey-Nagel) following the manufacturer's protocol. The genomic region flanking the targeted genomic site was PCR amplified using the primers in Table 4 and products were purified using ZR-96 DNA Clean and Concentrator (Zymo Research) following the manufacturer's protocol. The purified PCR products were then sent for Next Generation Sequencing on Illumina MiSeq (2×250). Results were analyzed for INDEL formation or introduction of % specific cytosine mutations.
(§2) The position of each nucleotide in the target sequence was determined. “C17” indicates, for example, a cytosine at position 17 of the target sequence. The position of each nucleotide in the target sequence was determined by numbering the first nucleotide in the target sequence closest to the PAM as position 1, and the position number increases in the 3′ direction away from the PAM sequence.

[2] = target: T2, APG30127-L32-nAPG07433.1 (synthetic); assay: cell_activity; HEK293FT; PAM SEQ 152
T2 chain: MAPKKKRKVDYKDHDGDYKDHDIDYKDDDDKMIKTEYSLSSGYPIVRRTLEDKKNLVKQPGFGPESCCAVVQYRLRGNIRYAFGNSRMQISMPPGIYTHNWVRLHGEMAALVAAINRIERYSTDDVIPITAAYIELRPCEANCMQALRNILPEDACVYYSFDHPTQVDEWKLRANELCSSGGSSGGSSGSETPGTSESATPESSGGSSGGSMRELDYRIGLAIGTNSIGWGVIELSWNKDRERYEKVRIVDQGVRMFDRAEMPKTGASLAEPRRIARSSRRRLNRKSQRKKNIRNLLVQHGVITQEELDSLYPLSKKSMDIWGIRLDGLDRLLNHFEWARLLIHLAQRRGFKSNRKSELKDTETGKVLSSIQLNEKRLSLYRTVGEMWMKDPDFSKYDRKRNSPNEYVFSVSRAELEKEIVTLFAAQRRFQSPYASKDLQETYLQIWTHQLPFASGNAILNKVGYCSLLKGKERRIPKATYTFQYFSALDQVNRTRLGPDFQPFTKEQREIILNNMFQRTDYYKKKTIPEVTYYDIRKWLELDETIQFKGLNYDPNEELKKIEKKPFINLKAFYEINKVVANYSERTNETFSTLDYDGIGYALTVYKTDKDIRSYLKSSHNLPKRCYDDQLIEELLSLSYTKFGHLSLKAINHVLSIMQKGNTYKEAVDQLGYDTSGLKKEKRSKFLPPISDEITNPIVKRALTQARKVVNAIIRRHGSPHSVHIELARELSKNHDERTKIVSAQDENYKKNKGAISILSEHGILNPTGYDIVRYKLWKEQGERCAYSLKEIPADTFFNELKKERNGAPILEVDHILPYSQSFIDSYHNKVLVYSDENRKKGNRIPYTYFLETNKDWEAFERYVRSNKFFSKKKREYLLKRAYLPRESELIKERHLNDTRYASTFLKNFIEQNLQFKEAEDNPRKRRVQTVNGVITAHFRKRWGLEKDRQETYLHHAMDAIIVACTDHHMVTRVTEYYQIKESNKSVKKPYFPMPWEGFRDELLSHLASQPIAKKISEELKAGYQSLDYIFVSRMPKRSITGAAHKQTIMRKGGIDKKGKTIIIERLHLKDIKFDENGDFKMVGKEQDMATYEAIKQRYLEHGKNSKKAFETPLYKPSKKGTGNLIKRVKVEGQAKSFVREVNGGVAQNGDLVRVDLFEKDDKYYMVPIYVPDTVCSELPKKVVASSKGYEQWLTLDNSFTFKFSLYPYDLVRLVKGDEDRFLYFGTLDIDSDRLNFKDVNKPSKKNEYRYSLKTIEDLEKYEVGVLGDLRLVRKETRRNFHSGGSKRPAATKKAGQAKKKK
Method: as §1, §2

[3] = target: nAPG07433.1-APG05840 (synthetic); assay: cell_activity; HEK293FT; C>G predominant; PAM SEQ 152

Binder | activity [1] [% mutated reads] | activity [2] [% mutated reads] | activity [3] [% mutated reads]
SGN000186 sgRNA ; SGN000186 target (ssRNA ; dsDNA) RNA: GGACAGUGCGCAUCUCCCUGGUCAUAGUUCCAUUAAAGCCAAAAGUGGCUUUGAUGUUUCUAUGAUAAGGGUUUCGACCCGUGGCGUCGGGGAUCGCCUGCCCAUUGAAAUGGGCUUCUCCCCAUUUAUU DNA 1: GGACAGTGCGCATCTCCCTG DNA 2: CAGGGAGATGCGCACTGTCC | 11.4 | 14.3 | 
SGN000928 sgRNA ; SGN000928 target (ssRNA ; dsDNA) RNA: GCUUCUACUCUUGGCUUACAACCCAGUCAUAGUUCCAUGAAAGCCAAAAGUGGCUUUGAUGUUUCUAUGAUAAGGGUUUCGGCCCGUGGCGUCGGGGAUCGCCUGCCCAUUCCGAUGGGCUUCUCCCCAUUUAUU DNA 1: GCTTCTACTCTTGGCTTACAACCCA DNA 2: TGGGTTGTAAGCCAAGAGTAGAAGC |  |  | 20.9
